Reference: US20050031628A1

Assays:
[1] = biological target: antigen binding receptors on maturing human monocyte-derived dendritic cells; assay: flow cytometry, maturing dendritic cells loaded with 10 µg/ml HBV S1/S2
[2] = biological target: antigen binding receptors on maturing human monocyte-derived dendritic cells; assay: flow cytometry, 90 µg/mL, 1 h at 4 C, dendritic cells of day 1 of culture, F(ab')2 goat anti-mouse Alexa-488
[3] = biological target: antigen binding receptors on maturing human monocyte-derived dendritic cells; assay: flow cytometry, 90 µg/mL, 1 h at 4 C, dendritic cells of day 2 of culture, F(ab')2 goat anti-mouse Alexa-488
[4] = biological target: antigen binding receptors on maturing human monocyte-derived dendritic cells; assay: flow cytometry, 90 µg/mL, 1 h at 4 C, dendritic cells of day 3 of culture, F(ab')2 goat anti-mouse Alexa-488
[5] = biological target: antigen binding receptors on maturing human monocyte-derived dendritic cells; assay: flow cytometry, 90 µg/mL, 1 h at 4 C, dendritic cells of day 4 of culture, F(ab')2 goat anti-mouse Alexa-488

Substance	% Specific positive cells [1] [%]	Relative MFI [1]	% Specific positive dendritic cells [2] [%]	% Specific positive dendritic cells [3] [%]	% Specific positive dendritic cells [4] [%]	% Specific positive dendritic cells [5] [%]
HBV S1/S2 expressed in E. coli	12.2	3.9				
HBV S1/S2 expressed in High Five insect cells (baculovirus)	69.9	40.3				
murine IgG2a (G155-178) (antibody)			28	17.4	14.3	13.5
